Values of other authors as cited in publication PMC9623233 (Clinical Cancer Research, 2022).
Like-named read-outs stand apart in the source and are kept apart here.

Settings: cited from earlier work

Substance: mirvetuximab soravtansine: α-FR–targeted antibody–drug conjugate with maytansine payload
- Pneumonitis (combined with bevacizumab): 9%
- Pneumonitis (single agent): 2.9%
